# According to the RNAGym collection of RNA variant scans (doi:10.7554/elife.90254):
# B1: OR4K15 (parent)
# chain: GUUAACGGUCAUAGGCCAUGGAAACUAGGAGCACCAUUUCGCUGCCAGUGAAGAAAUGAACAAAGAAAAUCUGGGCCAGGCAGGCAUCAAAAGAAAUAGUCUUGCGCUCAACCAGAAAGUCUGUAAUCAUUUUAAGGGUA
# Variants of: B1
# Assay: self-cleavage, relative activity (ratio to wild type); higher = more cleavage; in vitro, sequencing; the parent is a self-cleaving ribozyme
row,Variant,self-cleavage
1,GUUAACGGUCAUAGGCCAUGGAAACUAGGAGCACCAUUCCGCUGCCAGUGAAGAAAUGAACAAAGAAAAUCUGGGCCAGGCAGGCAUCAAAAGAAAUAGUCUUGCGCUCAACCAUAAAGUCUGUAAUCAUUUUAAGGGUA,0.04
2,GUUAACGGUCAUAGGCCAUGGAAACUAGGAGCACCAUUUCGCUGCCAGUGAAGAAAUGAACAAAGAAAAUCUGGGCCAGGCAGGCUUCAAAAUAAAUAGUCUUGCGCUCAACCAGAAAGUCUGUAAUCAUUUUAAGGGUA,2.01
3,GUUAACGGUCAUGGGCCAUGGAAACUAGGAGCACCAUCUCGCUGCCAGUGAAGAAAUGAACAAAGAAAAUCUGGGCCAGGCAGGCAUCAAAAGAAAUAGUCUUGCGCUCAACCAGAAAGUCUGUAAUCAUUUUAAGGGUA,1.14
4,GUUAACGGUCAUAGGCCAUGGAAACUAGGAGCACCAUUUCGCUGCCAGUGAAGAAAUGAACAAAGAAAAUCUGGGUCAGGCAGGCAUCAAAAGAAAUAGUCUUGCGCUCAACCAGAAAGUCUGUAAUCAUUUUAAGGGUG,0.12
5,GUUAACGGUCAUAGGCCAUGGAAACUAGGAGCACCAUUUCGCUGCCAGUGAAGAAAUGAACAAAGAAAAUCUGGGCCAGGCAGGCAUCAAAAGAAAUAGUCUUGCGCUCAACCAGAAAGUCUGUAAUCAUUCUAAGGGUU,1.65
6,GUUAACGGUCAUAGGCCAUGGAAACUAGGAGCACCAUUUCGCUGCCAGUGUAGAAAUGAACAAAGAAAAUCUGGGCCAGGCAGGCAUCAAAAGCAAUAGUCUUGCGCUCAACCAGAAAGUCUGUAAUCAUUUUAAGGGUA,0.55
7,GUUAACGGUCAUAGGCCAUGGAAACUAGGAGCACCAUUUCGCCGCCAGUGAAGAAAUGAACAUAGAAAAUCUGGGCCAGGCAGGCAUCAAAAGAAAUAGUCUUGCGCUCAACCAGAAAGUCUGUAAUCAUUUUAAGGGUA,0.91
8,GUUGACGGUCAUAGGCCAUGGAAACUAGGAGCACCAUUUCGCUGCCAGUGAAGAAAUGAACAAAGAAAAUCUGGGCCAGGCAGGCAUCAAUAGAAAUAGUCUUGCGCUCAACCAGAAAGUCUGUAAUCAUUUUAAGGGUA,1.36
9,GUUAACGGUCAUAGGCCAUGGAAACUGGGAGCACCAUUUCGCUGCCAGUGAAGAAAUGAACAAAGAAUAUCUGGGCCAGGCAGGCAUCAAAAGAAAUAGUCUUGCGCUCAACCAGAAAGUCUGUAAUCAUUUUAAGGGUA,1.1
10,GUUAACGGUCAUAGGCCAUGGAAACUAGGAGCACCAUCUCGCUGCCAGUGAAGAAAUGAACAAAGAAAAUCUGGGCCAGGCAGGCAUCAAAAGAAAUAGUCUUGCGCUCAACCAGAAAGUCUGUAAUCAUUUUAGGGGUA,1.9
11,GUUAACGGUCAUAGGCCAUGGAGACUAGGAGCACCAUUUCGCUGCCAGUGAAGAAAUGAACAAAGAAAAUCUGGGCCAGGCAGGCAUCAAAAGAAAUAGUCUUGCGCUCCACCAGAAAGUCUGUAAUCAUUUUAAGGGUA,0.09
12,GUUAACGGUCAUAGGCCAUGGAAACCAGGAGCACCAUCUCGCUGCCAGUGAAGAAAUGAACAAAGAAAAUCUGGGCCAGGCAGGCAUCAAAAGAAAUAGUCUUGCGCUCAACCAGAAAGUCUGUAAUCAUUUUAAGGGUA,1.45
13,GUUAACGGUCAUAGGCCAUGGAAACUAGGAGCACCAUUUCGCUGCCGGAGAAGAAAUGAACAAAGAAAAUCUGGGCCAGGCAGGCAUCAAAAGAAAUAGUCUUGCGCUCAACCAGAAAGUCUGUAAUCAUUUUAAGGGUA,1.06
14,GUUAACGGUCAGAGGCCAUGGAAACUAGGAGCACCAUUUCGCUGCCAGUGAAGAAAUGAACAAAGAAAAUCUGGGCCAGGCAGGCGUCAAAAGAAAUAGUCUUGCGCUCAACCAGAAAGUCUGUAAUCAUUUUAAGGGUA,0.92
15,GUUAACGGUCAUAGGCCAUGGGAACUAGGAGCACCAUUUCGCUGCCAGUGAAGAAAUGAACAAAGAAAAUCUGGGCCAGGCAGGCAUCAAAAGAAAUAGUCUUGCGUUCAACCAGAAAGUCUGUAAUCAUUUUAAGGGUA,0.06
16,GUUAACGGUCAUAGGCCAUGGAAACUUGGAGCACCAUUUCGCUGCCAGUGAAGAAAUGAACAAAGAAAAUCUGGGCCAGGCAGGCAUCAAAAGAAAUAGUCUUGCGCUCAACCAGAAAGUCUGUAAUCACUUUAAGGGUA,1.07
17,GUUAACGGUCAAAGGCCAUGGAAACUAGGAGCACCACUUCGCUGCCAGUGAAGAAAUGAACAAAGAAAAUCUGGGCCAGGCAGGCAUCAAAAGAAAUAGUCUUGCGCUCAACCAGAAAGUCUGUAAUCAUUUUAAGGGUA,1.96
18,GUUAACGGUCAUAGGCCGUGGAAACUAGGAGCACCAUUUCGCUACCAGUGAAGAAAUGAACAAAGAAAAUCUGGGCCAGGCAGGCAUCAAAAGAAAUAGUCUUGCGCUCAACCAGAAAGUCUGUAAUCAUUUUAAGGGUA,1.66
19,GUUAACGGUCAUAGGCCAUGGAAACUAGGAGCACCAUUUCGCUGCCAGUGAAGAAAUGAACAAAGAAAAUCUGGGCCAGGCAGGCAUCAAAAGAAAUAGUCUUGCGCUCAACCAGGAAGUCAGUAAUCAUUUUAAGGGUA,0.5
20,GUUAACGGUCAUAGGCCACGGAAACUAGGAGCACCAUUUCGCUGCCAGUGAAGAAAUGAACAAAGAAAAUCUGGGCCAGGCAGGCAUCAAAAGAAAUAGUCUUGCGCUCAACCAGAAAGUCUGUAAACAUUUUAAGGGUA,2.17
